Experimental data reported in publication PMC3808164.

What was measured:
Experiment in all cases: co-IP
[1] = target: GFP-tagged VP1/2 regions 6 and 7 (deletion of regions 1–5) (pseudorabies virus (PRV))
[2] = target: GFP-tagged VP1/2 with a single deletion of regions 1–4 (C terminus intact) (pseudorabies virus (PRV))
[3] = target: GFP-tagged VP1/2 with the region 6^S deletion combined with deletion of regions 1–4 (pseudorabies virus (PRV))
[4] = target: GFP-tagged VP1/2[change]^S (deletion of region 6^S in the context of full-length VP1/2) (pseudorabies virus (PRV))
[5] = target: GFP-VP1/2[change] (pseudorabies virus (PRV))

Substance	fold decrease in binding against full-length VP1/2 [1]	fold decrease in binding against full-length VP1/2 [2]	fold decrease in binding against full-length VP1/2 [3]	fold decrease in binding against full-length VP1/2 [4]	efficiency of coimmunoprecipitation as percent of full-length GFP-VP1/2 [5]
p50/dynamitin (from UniProt Q13561 1-401) (natural protein)	11 fold	9 fold	23 fold	4 fold	
p150/glued dynactin subunit (from UniProt Q14203 1-1278) (natural protein)		5 fold		5 fold	79%
